Measurements: patent publication US20050113284A1, “Drug for regenerating tissue and vessel and method therefor” (priority 2001, published 2005)

T1: MERMUC bait protein (Homo sapiens, UniProt Q8N307)
T1 construct: Bait-2 corresponds to a 123 amino acid portion of the C-terminus (bait-2); expressed in transfected cells; host or cells: yeast AH109 strain (pGBKT7 bait vector)
T1 sequence (Q8N307 587-709): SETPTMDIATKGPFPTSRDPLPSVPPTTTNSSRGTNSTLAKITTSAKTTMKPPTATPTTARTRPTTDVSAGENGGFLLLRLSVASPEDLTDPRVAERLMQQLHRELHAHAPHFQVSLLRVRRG


Tests used:
MERMUC bait protein = molecular target: T1, MERMUC bait protein; test: Yeast two-hybrid binding of c-Met prey deletion proteins to MERMUC bait-2; settings: yeast growth on SD/-Leu,-Trp,-His and SD/-Leu,-Trp,-Ade; human MERMUC bait-2
Method: The present invention was performed using the reported yeast two-hybrid system (Proc. Natl. Acad. Sci. USA., 1991, Vol. 88, p.9578-9582) based on conventional method and the experimental protocols appended to the reagents.
PCR was performed using DNA (clone No. 3-309) corresponding to the 91 amino acids (amino acids 993-1083 of SEQ ID NO: 4) of the C-terminal region of the human HGF receptor c-Met β chain that was identified in the previous Example to have the binding ability to the cytoplasmic region of human MERMUC as a template. Seven DNA fragments shown below corresponding to the C-terminal region of the c-Met β chain having various lengths, wherein various length of N-terminal or C-terminal amino acids are deleted from said 91 amino acids were prepared via a conventional method by PCR: • A. DNA corresponding to a region (amino acids 1003-1083 of SEQ ID NO: 4) that lacks the 10 N-terminal amino acids of the 91 amino acids of the C-terminal human c-Met β chain; • B. DNA corresponding to a region (amino acids 1013-1083 of SEQ ID NO: 4) that lacks the 20 N-terminal amino acids of the 91 amino acids of the C-terminal human c-Met β chain; • C. DNA corresponding to a region (amino acids 1023-1083 of SEQ ID NO: 4) that lacks the 30 N-terminal amino acids of the 91 amino acids of the C-terminal human c-Met β chain; • D. DNA corresponding to a region (amino acids 993-1073 of SEQ ID NO: 4) that lacks the C-terminal 10 amino acids of the 91 amino acids of the C-terminal human c-Met β chain; • E. DNA corresponding to a region (amino acids 993-1063 of SEQ ID NO: 4) that lacks the 20 C-terminal amino acids of the 91 amino acids of the C-terminal human c-Met β chain; • F. DNA corresponding to a region (amino acids 993-1053 of SEQ ID NO: 4) that lacks the 30 C-terminal amino acids of the 91 amino acids of the C-terminal human c-Met β chain; and • G. DNA corresponding to a region (amino acids 993-1043 of SEQ ID NO: 4) that lacks the 40 C-terminal amino acids of the 91 amino acids of the C-terminal human c-Met β chain.
Furthermore, the forward and reverse primers used for the PCR were designed to contain an EcoRI site and SalI site at their 5′ end, respectively. Each of the DNA fragments prepared by PCR were inserted into the EcoRI/SalI site of pADKT7 vector (a vector for a prey protein that contains a tryptophan biosynthesis gene as a marker; CLONTECH) in frame with GAL4-AD to prepare prey vectors wherein each of the 7 DNAs described above is inserted.
Each of the 7 prey vectors was cointroduced into yeast AH109 strain with the human MERMUC bait-2 vector prepared in Example 1.
The binding activity between the c-Met prey proteins derived from the 7 DNA fragments and the MERMUC bait protein was analyzed by the yeast two-hybrid system described in Example 1. Specifically, the binding activity was evaluated based on the growth of yeast transformed with the vector on 2 kinds of yeast minimum media, i.e., (1) SD/-Leu, -Trp, -His media and (2) SD/-Leu, -Trp, -Ade media.

[1] = tested on: C-terminal region of human MERMUC (bait-2, bait-3); test: Yeast two hybrid screening of human kidney cDNA library with MERMUC baits; assay type: binding; settings: for binding ability to the protein derived from bait-2: bait-2 = 123 amino acid portion of the C-terminus of human MERMUC; for binding ability to the protein derived from bait-3: bait-3 = 65 C-terminal amino acids of human MERMUC
Method: Specifically, yeast two hybrid system (Proc. Natl. Acad. Sci. USA., 1991, Vol.88, p.9578-9582) was performed to screen a human kidney cDNA library using cDNA corresponding to the C-terminal region of the human MERMUC as the bait (that is, fishing bait).
Two kinds of bait (bait-2 and bait-3) were designed using each of Ex.-2 and Ex.-3 as the core. Bait-2 corresponds to a 123 amino acid portion of the C-terminus (bait-2) and bait-3 corresponds to the 65 C-terminal amino acids (bait-3).
Each bait vector was obtained by inserting each DNA fragment obtained by digesting each of the PCR products with the restriction enzymes EcoRI and SalI into the EcoRI/SalI site of pGBKT7 vector (leucine biosynthesis gene as a marker; CLONTECH). In yeast, the gene within the vector is produced as a fusion protein ([fusion protein A]) with the DNA binding region (GAL4-DB) of the yeast transcription factor GAL4.
On the other hand, each cDNA of the human kidney derived cDNA library (CLONTECH) that is used for the screening with the bait vector is inserted in pADK vector (tryptophan biosynthesis gene as a marker). Therefore, proteins produced through the expression of each of these cDNAs in yeast are produced as a fusion protein ([fusion protein B]) with the GAL4 transcriptional activation region (GAL4-AD).
AH109 strain (leucine, tryptophan, histidine and adenine auxotrophic yeast; CLONTECH) was used as the yeast host. This yeast strain contains 3 types of genes (histidine biosynthesis gene, adenine biosynthesis gene and β-galactosidase gene) under the control of the GAL promoter on the chromosome.
The function as a transcription factor is recovered through the fusion of GAL4-DB and GAL4-AD by the binding of the bait protein (the fusion protein A) with the prey protein (the fusion protein B).
Each bait vector was introduced into yeast AH109 strain with the cDNA library plasmid mentioned above (50,000 clones per pool) by the polyethylene glycol/lithium acetate method for screening (J. Bacteriol., 1983, Vol. 153, p.163-16883; Curr. Genet., 1989, Vol. 16, p. 339-346; Nucleic Acids Res., 1991, Vol. 19, p. 5791; Nucleic Acids Res., 1992, Vol. 20, p.1425).
The marker for the first selection of yeast with the desired transformation in the present screening was acquired histidine non-requirement due to the expression of the histidine biosynthesis gene. Therefore, after introducing the plasmid, yeast was cultured for 5 days at 30° C. in yeast minimum medium that lacks leucine, tryptophan and histidine (SD/-Leu,-Trp,-His) used for selecting transformants.
Transformed yeast that grew on the plate upon cultivation were picked with toothpick and seeded on 3 kinds of plates described below, and then cultured for 5 days at 30° C. for a second selection of the desired clones: • <A> plate containing yeast minimum medium lacking leucine, tryptophan and histidine (SD/-Leu, -Trp, -His); • <B> plate containing yeast minimum medium lacking leucine, tryptophan and adenine (SD/-Leu, -Trp, -Ade); and • <C> plate containing yeast minimum medium lacking leucine and tryptophan, and supplemented with α-X-gal (20 ug/ml) (SD/-Leu, -Trp, +X-gal).
Positive clones were identified as colonies growing on both of the above-mentioned <A> and <B> plates (acquirement of histidine and adenine non-requirement) and showing blue color on plate <C> (α-X-gal addition) (expression of β-galactosidase activity). Four prey cDNA clones (clones No. 3-309, No. 3-312, No. 2-22 and No. 2-211) were selected as positive.

Row | Molecule | binding activity with MERMUC bait protein (MERMUC bait protein) | binding ability to the protein derived from bait-2 [1] | binding ability to the protein derived from bait-3 [1]
1 | prey DNA A: c-Met prey protein, amino acids 1003-1083 of SEQ ID NO: 4 (protein, listed as Homo sapiens) DPLYEVMLKCWHPKAEMRPSFSELVSRISAIFSTFIGEHYVHVNATYVNVKCVAPYPSLLSSEDNADDEVDTRPASFWETS | + (bound) (+ (bound)) | – | –
2 | clone No. 3-312: prey protein: C-terminal 89 amino acids (amino acids 995-1083 of SEQ ID NO: 4) of the human c-Met β chain (protein, listed as Homo sapiens) LLQPEYCPDPLYEVMLKCWHPKAEMRPSFSELVSRISAIFSTFIGEHYVHVNATYVNVKCVAPYPSLLSSEDNADDEVDTRPASFWETS | – | had binding ability | had binding ability
3 | clone No. 2-22: prey protein: C-terminal 93 amino acids (amino acids 411-503 of SEQ ID NO: 10) of human MERMUC (protein, listed as Homo sapiens) SSRGTNSTLAKITTSAKTTMKPPTATPTTARTRPTTDVSAGENGGFLLLRLSVASPEDLTDPRVAERLMQQLHRELHAHAPHFQVSLLRVRRG | – | had binding ability | –
4 | clone No. 3-309: prey protein: C-terminal 91 amino acids (amino acids 993-1083 of SEQ ID NO: 4) of the human c-Met β chain (protein, listed as Homo sapiens) RRLLQPEYCPDPLYEVMLKCWHPKAEMRPSFSELVSRISAIFSTFIGEHYVHVNATYVNVKCVAPYPSLLSSEDNADDEVDTRPASFWETS | – | had binding ability | had binding ability

Now from value to molecule:

Row | binding activity with MERMUC bait protein (MERMUC bait protein) | binding ability to the protein derived from bait-2 [1] | binding ability to the protein derived from bait-3 [1] | Molecule
5 | + (bound) (+ (bound)) | – | – | prey DNA D: c-Met prey protein, amino acids 993-1073 of SEQ ID NO: 4 (protein, listed as Homo sapiens) RRLLQPEYCPDPLYEVMLKCWHPKAEMRPSFSELVSRISAIFSTFIGEHYVHVNATYVNVKCVAPYPSLLSSEDNADDEVD
6 | + (bound) (+ (bound)) | – | – | prey DNA B: c-Met prey protein, amino acids 1013-1083 of SEQ ID NO: 4 (protein, listed as Homo sapiens) WHPKAEMRPSFSELVSRISAIFSTFIGEHYVHVNATYVNVKCVAPYPSLLSSEDNADDEVDTRPASFWETS
7 | + (bound) (+ (bound)) | – | – | prey DNA F: c-Met prey protein, amino acids 993-1053 of SEQ ID NO: 4 (protein, listed as Homo sapiens) RRLLQPEYCPDPLYEVMLKCWHPKAEMRPSFSELVSRISAIFSTFIGEHYVHVNATYVNVK
8 | + (bound) (+ (bound)) | – | – | prey DNA E: c-Met prey protein, amino acids 993-1063 of SEQ ID NO: 4 (protein, listed as Homo sapiens) RRLLQPEYCPDPLYEVMLKCWHPKAEMRPSFSELVSRISAIFSTFIGEHYVHVNATYVNVKCVAPYPSLLS
9 | − (no binding) | – | – | prey DNA C: c-Met prey protein, amino acids 1023-1083 of SEQ ID NO: 4 (protein, listed as Homo sapiens) FSELVSRISAIFSTFIGEHYVHVNATYVNVKCVAPYPSLLSSEDNADDEVDTRPASFWETS
